Experimental data from patent US20220049017A1 (KYMAB, published 2022).
Changes are numbered by the printed parent chain. Like-named read-outs stand apart in the source and are kept apart here. One block for each binder: values may come before it.

Legend:
[1] = target: T1, human PCSK9 D374Y gain-of-function mutant (human, UniProt Q8NBP7 31-692); experiment: cell-based or functional assay
human PCSK9 reference [2] = target: T2, human PCSK9 reference (human, UniProt Q8NBP7 31-692); experiment: ProteOn SPR, captured antibody, pH 7.6;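 further: antibodies captured via anti-human Fc on a GLC sensor chip, PCSK9 binding sensorgrams fitted to a 1:1 Langmuir model giving on and off rates, with KD derived from them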
Experimental: (§1) The SPR runs were performed using a GLC chip (Bio-Rad) immobilised with anti-human Fc antibodies. The analyte human antibodies were captured on the chip surface at 2 ug/ml. […] The chip surface was regenerated using two injections of 10 mM Glycine pH 1.5 for 160 seconds at 30 μl/min. The sensorgrams were then fitted with a 1:1 model (Langmuir kinetic model) where ka and kd are fitted and KD was calculated by the ProteOn software.

[3] = target: T1, human PCSK9 D374Y gain-of-function …; experiment: ProteOn SPR, captured antibody, pH 7.6;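 further: antibodies captured via anti-human Fc on a GLC sensor chip, PCSK9 binding sensorgrams fitted to a 1:1 Langmuir model giving on and off rates, with KD derived from them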
Experimental: as §1

human PCSK9 variant b [4] = target: T3, human PCSK9 variant b (human, UniProt Q8NBP7 31-692); experiment: ProteOn SPR, captured antibody, pH 7.6;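 further: antibodies captured via anti-human Fc on a GLC sensor chip, PCSK9 binding sensorgrams fitted to a 1:1 Langmuir model giving on and off rates, with KD derived from them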
T3 construct: also called Human PCSK9 var B; hPCSK9b
Experimental: as §1

cynomolgus monkey PCSK9 [5] = target: T4, cynomolgus monkey PCSK9 (cynomolgus monkey, UniProt A8T662 31-692 (Macaca nemestrina entry), limits assumed); experiment: ProteOn SPR, captured antibody, pH 7.6;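 further: antibodies captured via anti-human Fc on a GLC sensor chip, PCSK9 binding sensorgrams fitted to a 1:1 Langmuir model giving on and off rates, with KD derived from them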
T4 construct: also called Cyno PCSK9; cynoPCSK9
Experimental: as §1

mouse PCSK9 [6] = target: T5, mouse PCSK9 (mouse, UniProt Q80W65 35-694, limits assumed); experiment: ProteOn SPR, captured antibody, pH 7.6
T5 construct: also called mPCSK9; PCSK9 mouse
Experimental: as §1

human PCSK9 variant a [7] = target: T6, human PCSK9 variant a (human, UniProt Q8NBP7 31-692); experiment: ProteOn SPR, captured antibody, pH 7.6
T6 construct: also called Human PCSK9 var A; hPCSK9a
Experimental: as §1

human PCSK9 reference [8] = target: T2, human PCSK9 reference; experiment: ProteOn SPR, captured antibody, pH 5.8;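 further: antibodies captured on a GLC chip coated with anti-human Fc, rate constants from a 1:1 Langmuir fit of the sensorgrams, Kd derived from the fitted rates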
Experimental: as §1

[9] = target: T1, human PCSK9 D374Y gain-of-function …; experiment: ProteOn SPR, captured antibody, pH 5.8;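 further: antibodies captured on a GLC chip coated with anti-human Fc, rate constants from a 1:1 Langmuir fit of the sensorgrams, Kd derived from the fitted rates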
Experimental: as §1

human PCSK9 variant b [10] = target: T3, human PCSK9 variant b; experiment: ProteOn SPR, captured antibody, pH 5.8;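 further: antibodies captured on a GLC chip coated with anti-human Fc, rate constants from a 1:1 Langmuir fit of the sensorgrams, Kd derived from the fitted rates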
Experimental: as §1

cynomolgus monkey PCSK9 [11] = target: T4, cynomolgus monkey PCSK9; experiment: ProteOn SPR, captured antibody, pH 5.8;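 further: antibodies captured on a GLC chip coated with anti-human Fc, rate constants from a 1:1 Langmuir fit of the sensorgrams, Kd derived from the fitted rates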
Experimental: as §1

mouse PCSK9 [12] = target: T5, mouse PCSK9; experiment: ProteOn SPR, captured antibody, pH 5.8
Experimental: as §1

human PCSK9 variant a [13] = target: T6, human PCSK9 variant a; experiment: ProteOn SPR, captured antibody, pH 5.8
Experimental: as §1

[14] = target: T1, human PCSK9 D374Y gain-of-function …; experiment: cell-based or functional assay; remark: listed apart in the source
[15] = target: T1, human PCSK9 D374Y gain-of-function …; experiment: cell-based or functional assay; remark: listed apart in the source

T5 sequence (Q80W65 35-694 limits assumed): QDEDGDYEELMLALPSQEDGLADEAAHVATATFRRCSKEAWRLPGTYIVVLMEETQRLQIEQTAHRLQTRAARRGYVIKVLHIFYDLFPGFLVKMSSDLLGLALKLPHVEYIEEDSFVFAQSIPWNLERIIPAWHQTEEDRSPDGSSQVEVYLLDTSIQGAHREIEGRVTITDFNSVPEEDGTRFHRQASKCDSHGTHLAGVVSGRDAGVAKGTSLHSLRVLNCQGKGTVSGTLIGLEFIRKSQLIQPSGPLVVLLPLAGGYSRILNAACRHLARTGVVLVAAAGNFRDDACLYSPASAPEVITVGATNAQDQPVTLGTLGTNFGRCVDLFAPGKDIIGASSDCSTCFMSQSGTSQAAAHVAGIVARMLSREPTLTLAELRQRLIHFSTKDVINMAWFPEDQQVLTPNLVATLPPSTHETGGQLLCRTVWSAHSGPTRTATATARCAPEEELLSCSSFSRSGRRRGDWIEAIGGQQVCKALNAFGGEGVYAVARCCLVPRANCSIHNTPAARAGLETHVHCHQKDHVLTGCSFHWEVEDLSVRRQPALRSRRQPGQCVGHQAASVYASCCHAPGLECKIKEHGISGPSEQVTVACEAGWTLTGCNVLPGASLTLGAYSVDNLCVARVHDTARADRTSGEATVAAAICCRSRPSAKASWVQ
T4 sequence (A8T662 31-692 limits assumed): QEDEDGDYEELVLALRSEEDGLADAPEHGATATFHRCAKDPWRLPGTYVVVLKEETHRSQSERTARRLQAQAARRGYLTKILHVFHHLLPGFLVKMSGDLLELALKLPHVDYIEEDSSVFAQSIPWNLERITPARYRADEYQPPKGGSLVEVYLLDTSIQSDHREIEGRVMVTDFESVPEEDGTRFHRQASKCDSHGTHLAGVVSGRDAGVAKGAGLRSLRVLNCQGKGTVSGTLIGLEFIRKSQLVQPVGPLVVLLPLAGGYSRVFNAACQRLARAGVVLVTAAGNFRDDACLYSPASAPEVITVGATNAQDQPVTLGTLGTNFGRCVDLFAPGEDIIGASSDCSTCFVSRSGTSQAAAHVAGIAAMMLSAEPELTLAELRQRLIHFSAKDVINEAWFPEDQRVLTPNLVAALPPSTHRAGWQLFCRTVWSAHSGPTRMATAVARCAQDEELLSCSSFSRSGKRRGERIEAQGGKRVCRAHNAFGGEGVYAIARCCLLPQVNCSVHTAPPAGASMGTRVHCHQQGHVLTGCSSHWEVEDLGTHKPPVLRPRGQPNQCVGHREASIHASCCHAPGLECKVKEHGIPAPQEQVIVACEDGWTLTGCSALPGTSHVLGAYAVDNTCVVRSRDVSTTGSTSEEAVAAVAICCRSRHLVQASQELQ

IC50 (read off the curve) [1]: ~2 nM
B1: Alirocumab hIgG4PE (antibody, V domains shown)
VH: EVQLVESGGGLVQPGGSLRLSCAASGFTFNNYAMNWVRQAPGKGLDWVSTISGSGGTTNYADSVKGRFIISRDSSKHTLYLQMNSLRAEDTAVYYCAKDSNWGNFDLWGRGTLVTVSS
VL: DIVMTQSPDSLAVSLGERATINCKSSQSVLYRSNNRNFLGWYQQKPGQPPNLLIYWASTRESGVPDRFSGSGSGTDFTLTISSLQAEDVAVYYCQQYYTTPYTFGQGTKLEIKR

Kd (human PCSK9 reference [2]): 0.205 nM | koff (human PCSK9 reference [2]): 0.00023 s⁻¹ | kon (human PCSK9 reference [2]): 1.13e+06 M⁻¹ s⁻¹ | Kd [3]: 0.245 nM | koff [3]: 0.000233 s⁻¹ | kon [3]: 949000 M⁻¹ s⁻¹ | Kd (human PCSK9 variant b [4]): 0.215 nM | koff (human PCSK9 variant b [4]): 0.000225 s⁻¹ | kon (human PCSK9 variant b [4]): 1.05e+06 M⁻¹ s⁻¹ | Kd (cynomolgus monkey PCSK9 [5]): 0.296 nM | koff (cynomolgus monkey PCSK9 [5]): 0.000284 s⁻¹ | kon (cynomolgus monkey PCSK9 [5]): 958000 M⁻¹ s⁻¹ | Kd (mouse PCSK9 [6]): 0.52 nM | koff (mouse PCSK9 [6]): 0.000411 s⁻¹ | kon (mouse PCSK9 [6]): 791000 M⁻¹ s⁻¹ | Kd (human PCSK9 variant a [7]): 0.216 nM | koff (human PCSK9 variant a [7]): 0.000234 s⁻¹ | kon (human PCSK9 variant a [7]): 1.08e+06 M⁻¹ s⁻¹ | Kd (human PCSK9 reference [8]): 0.368 nM | koff (human PCSK9 reference [8]): 0.000374 s⁻¹ | kon (human PCSK9 reference [8]): 1.02e+06 M⁻¹ s⁻¹ | Kd [9]: 0.431 nM | koff [9]: 0.000391 s⁻¹ | kon [9]: 908000 M⁻¹ s⁻¹ | Kd (human PCSK9 variant b [10]): 0.412 nM | koff (human PCSK9 variant b [10]): 0.000378 s⁻¹ | kon (human PCSK9 variant b [10]): 918000 M⁻¹ s⁻¹ | Kd (cynomolgus monkey PCSK9 [11]): 0.345 nM | koff (cynomolgus monkey PCSK9 [11]): 0.000336 s⁻¹ | kon (cynomolgus monkey PCSK9 [11]): 975000 M⁻¹ s⁻¹ | Kd (mouse PCSK9 [12]): 0.691 nM | koff (mouse PCSK9 [12]): 0.000701 s⁻¹ | kon (mouse PCSK9 [12]): 1.01e+06 M⁻¹ s⁻¹ | Kd (human PCSK9 variant a [13]): 0.426 nM | koff (human PCSK9 variant a [13]): 0.000387 s⁻¹ | kon (human PCSK9 variant a [13]): 908000 M⁻¹ s⁻¹ | IC50 (read off the curve) [14]: ~3 nM | IC50 (read off the curve) [1]: ~4 nM
B2: CL-148219 (antibody, V domains shown)
VH: QVHLQESGPGLVKPSETLSLTCTVSGGSISSYYWSWIRQYPGKGLEWIGYISYSGSSNYNPSLKRRVTISRDTSKNQFSLNLTSVIAADTAVYYCARNLMIRGAYGMDVWGQGTTVTVSS
VL: DTVMTQSPLSLPVTPGEPASISCRSSQSLLHSNGYNYLDWYLQKAGQSPQLLIYLGSNRASGVPDRFSGSVSGTDFTLKISRVEAEDVGIYYCMQALQTPFTFGPGTKVDIK
modifications: NLT motif in heavy chain framework 3 confirmed N-glycosylated by mass spectrometry
notes: Human antibody, captured through anti-human Fc in the SPR assay

IC50 (read off the curve) [15]: ~2 nM | Kd (human PCSK9 reference [2]): 0.272 nM | koff (human PCSK9 reference [2]): 0.000226 s⁻¹ | kon (human PCSK9 reference [2]): 833000 M⁻¹ s⁻¹ | Kd [3]: 0.303 nM | koff [3]: 0.000219 s⁻¹ | kon [3]: 721000 M⁻¹ s⁻¹ | Kd (human PCSK9 variant b [4]): 0.257 nM | koff (human PCSK9 variant b [4]): 0.000221 s⁻¹ | kon (human PCSK9 variant b [4]): 862000 M⁻¹ s⁻¹ | Kd (cynomolgus monkey PCSK9 [5]): 0.352 nM | koff (cynomolgus monkey PCSK9 [5]): 0.000256 s⁻¹ | kon (cynomolgus monkey PCSK9 [5]): 728000 M⁻¹ s⁻¹ | Kd (mouse PCSK9 [6]): 0.587 nM | koff (mouse PCSK9 [6]): 0.000352 s⁻¹ | kon (mouse PCSK9 [6]): 600000 M⁻¹ s⁻¹ | Kd (human PCSK9 variant a [7]): 0.267 nM | koff (human PCSK9 variant a [7]): 0.000229 s⁻¹ | kon (human PCSK9 variant a [7]): 856000 M⁻¹ s⁻¹ | Kd (human PCSK9 reference [8]): 0.667 nM | koff (human PCSK9 reference [8]): 0.000415 s⁻¹ | kon (human PCSK9 reference [8]): 622000 M⁻¹ s⁻¹ | Kd [9]: 0.753 nM | koff [9]: 0.000456 s⁻¹ | kon [9]: 606000 M⁻¹ s⁻¹ | Kd (human PCSK9 variant b [10]): 0.694 nM | koff (human PCSK9 variant b [10]): 0.000421 s⁻¹ | kon (human PCSK9 variant b [10]): 607000 M⁻¹ s⁻¹ | Kd (cynomolgus monkey PCSK9 [11]): 0.568 nM | koff (cynomolgus monkey PCSK9 [11]): 0.000331 s⁻¹ | kon (cynomolgus monkey PCSK9 [11]): 584000 M⁻¹ s⁻¹ | Kd (mouse PCSK9 [12]): 1.43 nM | koff (mouse PCSK9 [12]): 0.000675 s⁻¹ | kon (mouse PCSK9 [12]): 472000 M⁻¹ s⁻¹ | Kd (human PCSK9 variant a [13]): 0.712 nM | koff (human PCSK9 variant a [13]): 0.000429 s⁻¹ | kon (human PCSK9 variant a [13]): 602000 M⁻¹ s⁻¹
B3: CL-148219 QLT mutant (antibody, V domains shown)
VH: B2 VH with N81Q
VL: B2 VL
